# Measurements from PMC3751551.
# Numbering of substitutions follows the chain as printed. Names and notes keep the numbering of the source.
# B1: Rluc-BST2, Q10589 P40A; L41A; I42A (protein)
# chain: MASTSYDYCRVPMEDGDKRCKLLLGIGILVLLIIVILGVAAAIFTIKANSEACRDGLRAVMECRNVTHLLQQELTEAQKGFQDVEAQAATCNHTVMALMASLDAEKAQGQKKVEELEGEITTLNHKLQDASAEVERLRRENQVLSVRIADKKYYPSSQDSS
# B2: Rluc-BST2, Q10589 L22A; L23A; L24A (protein)
# chain: B1 chain with L22A, L23A, L24A, A40P, A41L, A42I
# B3: Rluc-BST2, Q10589 I43A; F44A; T45A (protein)
# chain: B1 chain with A40P, A41L, A42I, I43A, F44A, T45A
# B4: Rluc-BST2, Q10589 I46A; K47A (protein)
# chain: B1 chain with A40P, A41L, A42I, I46A, K47A
# B5: Rluc-BST2, Q10589 L31A; L32A; I33A (protein)
# chain: B1 chain with L31A, L32A, I33A, A40P, A41L, A42I
# B6: Rluc-BST2, Q10589 I34A; V35A; I36A (protein)
# chain: B1 chain with I34A, V35A, I36A, A40P, A41L, A42I
# B7: Rluc-BST2, Q10589 G25A; I26A; G27A (protein)
# chain: B1 chain with G25A, I26A, G27A, A40P, A41L, A42I
# B8: Rluc-BST2, Q10589 L37A; G38A; V39A (protein)
# chain: B1 chain with L37A, G38A, V39A, A40P, A41L, A42I
# B9: Rluc-BST2, Q10589 I28A; L29A; V30A (protein)
# chain: B1 chain with I28A, L29A, V30A, A40P, A41L, A42I
# B10: Rluc-BST2, Q10589 P40A (protein)
# chain: B1 chain with A41L, A42I
# B11: Rluc-BST2, Q10589 V35A (protein)
# chain: B1 chain with V35A, A40P, A41L, A42I
# B12: Rluc-BST2, Q10589 I42A (protein)
# chain: B1 chain with A40P, A41L
# B13: Rluc-BST2, Q10589 G38A (protein)
# chain: B1 chain with G38A, A40P, A41L, A42I
# B14: Rluc-BST2, Q10589 L41A (protein)
# chain: B1 chain with A40P, A42I
# B15: Rluc-BST2, Q10589 L37A (protein)
# chain: B1 chain with L37A, A40P, A41L, A42I
# B16: Rluc-BST2, Q10589 V39A (protein)
# chain: B1 chain with V39A, A40P, A41L, A42I
# B17: Rluc-BST2, Q10589 I34A (protein)
# chain: B1 chain with I34A, A40P, A41L, A42I
# B18: Rluc-BST2, Q10589 I36A (protein)
# chain: B1 chain with I36A, A40P, A41L, A42I
# Molecular target: Rluc-BST2 (UniProt Q10589)
# Experiment: BRET assay
# Settings: HEK293T cells; parent: est. 1.4; read off a plot
row,Molecule,response
1,Vm-EYFP (from UniProt P05923) I27A,1.3
2,Vm-EYFP (from UniProt P05923) V12A,1.3
3,Vm-EYFP (from UniProt P05923) V20A,1.3
4,Vm-EYFP (from UniProt P05923) I26A,1.3
5,Vm-EYFP (from UniProt P05923) V20A; V21A; W22A,0.41
6,Vm-EYFP (from UniProt P05923) I19A,1.2
7,Vm-EYFP (from UniProt P05923) L11A; V12A; V13A,0.9
8,Vm-EYFP (from UniProt P05923) I8A; V9A; A10V,1.2
9,Vm-EYFP (from UniProt P05923) E28A,1.1
10,Vm-EYFP (from UniProt P05923) S23A; I24A; V25A,1.1
11,Vm-EYFP (from UniProt P05923) I5A; V6A; A7V,0.98
12,Vm-EYFP (from UniProt P05923) V21A,1.1
13,Vm-EYFP (from UniProt P05923) I26A; I27A; E28A,0.85
14,Vm-EYFP (from UniProt P05923) W22A,0.69
15,Vm-EYFP (from UniProt P05923) I17A; A18V; I19A,0.58
16,Vm-EYFP (from UniProt P05923) A14V,1.2
17,Vm-EYFP (from UniProt P05923) I15A,1.2
18,Vm-EYFP (from UniProt P05923) I16A,1.2
19,Vm-EYFP (from UniProt P05923) V13A,1.3
20,Vm-EYFP (from UniProt P05923) L11A,0.93
21,Vm-EYFP (from UniProt P05923) A18V,0.52
22,Vm-EYFP (from UniProt P05923) A14V; I15A; I16A,0.76
23,Vm-EYFP (from UniProt P05923) I17A,1.4

# Molecular target: T1, Vm-EYFP, P05923
# T1 chain: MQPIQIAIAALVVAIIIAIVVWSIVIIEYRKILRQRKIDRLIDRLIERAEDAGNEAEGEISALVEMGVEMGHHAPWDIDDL
# Experiment: BRET assay
# Settings: chain shown with the change; HEK293T cells; forty-eight hours post-transfection; parent: est. 1.6; read off a plot
row,Molecule,response
1,B1,0.82
2,B2,1.3
3,B3,1.6
4,B4,1.6
5,B5,1.3
6,B6,0.88
7,B7,1.7
8,B8,0.95
9,B9,1.4

# Same assay, conditions: chain shown with the change; HEK293T cells; parent: est. 1.6; read off a plot
row,Molecule,response
1,B10,1.1
2,B11,1.5
3,B12,1.4
4,B13,1.5
5,B14,0.93
6,B15,0.77
7,B16,1.6
8,B17,1.1
9,B18,1.5
